Values of other authors as cited in article PMC9783754.
pKd: −log10 of the molar value.

Biological target: S100A12 (Homo sapiens) (UniProt P80511)
Sequence (P80511 2-92): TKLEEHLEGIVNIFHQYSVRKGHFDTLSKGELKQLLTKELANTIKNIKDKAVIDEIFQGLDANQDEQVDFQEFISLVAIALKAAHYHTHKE

S100A12, sequence (P80511 2-92): as above

- pKd: 3.80
Substance: S100A12 (from UniProt P80511)
